The supplement of paper PMC9112550, “Optimization of the antimicrobial peptide Bac7 by deep mutational scanning” (BMC Biology, 2022)

What follows are sequences tested on Escherichia coli TOP10 (assay: shrunken log2 fold change of peptide-encoding DNA abundance (4.5 h post-induction vs induction); higher = less antimicrobial activity (less host growth inhibition)). Conditions: time post-induction: 4.5 h; library: site-saturation at positions 5, 18, 19, 20.
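Also: peptides expressed intracellularly from a pBAD plasmid library in pooled LB shake-flask culture, induced with 0.3% L-arabinose, DNA abundance read by NGS, three biological replicates, DESeq2 with apeglm shrinkage.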

Sequence | shrunken log2 fold change
RRIRFRPPRLPRPRPRPEYDPRP | 0.0271
RRIRFRPPRLPRPRPRPFACPRP | -0.189
RRIRFRPPRLPRPRPRPFADPRP | -0.0172
RRIRFRPPRLPRPRPRPFAFPRP | -0.239
RRIRFRPPRLPRPRPRPFCGPRP | -0.0609
RRIRFRPPRLPRPRPRPFDHPRP | -0.281
RRIRFRPPRLPRPRPRPFGAPRP | 0.168
RRIRFRPPRLPRPRPRPFGWPRP | 0.0193
RRIRFRPPRLPRPRPRPFHHPRP | -0.976
RRIRFRPPRLPRPRPRPFISPRP | -0.691
RRIRFRPPRLPRPRPRPFKFPRP | -0.107
RRIRFRPPRLPRPRPRPFLMPRP | -0.263
RRIRFRPPRLPRPRPRPFPHPRP | -0.142
RRIRFRPPRLPRPRPRPFPPPRP | -0.123
RRIRFRPPRLPRPRPRPFQHPRP | -0.209
RRIRFRPPRLPRPRPRPFQIPRP | -0.0567
RRIRFRPPRLPRPRPRPFSVPRP | -1.57
RRIRFRPPRLPRPRPRPFSYPRP | -0.777
RRIRFRPPRLPRPRPRPFTYPRP | -0.208
RRIRFRPPRLPRPRPRPFVMPRP | -1.05
RRIRFRPPRLPRPRPRPFWTPRP | -0.257
RRIRFRPPRLPRPRPRPFWWPRP | 0.398
RRIRFRPPRLPRPRPRPFYPPRP | -0.824
RRIRFRPPRLPRPRPRPGAKPRP | 0.118
RRIRFRPPRLPRPRPRPGALPRP | 0.0277

Sequence | shrunken log2 fold change
RRIRFRPPRLPRPRPRPGAQPRP | 0.247
RRIRFRPPRLPRPRPRPGARPRP | 0.355
RRIRFRPPRLPRPRPRPGCGPRP | 0.748
RRIRFRPPRLPRPRPRPGDCPRP | -0.0759
RRIRFRPPRLPRPRPRPGFCPRP | -0.179
RRIRFRPPRLPRPRPRPGFMPRP | -0.242
RRIRFRPPRLPRPRPRPGGFPRP | 0.42
RRIRFRPPRLPRPRPRPGGNPRP | 0.149
RRIRFRPPRLPRPRPRPGHRPRP | 0.0983
RRIRFRPPRLPRPRPRPGHSPRP | -0.0168
RRIRFRPPRLPRPRPRPGIFPRP | -0.218
RRIRFRPPRLPRPRPRPGKTPRP | -0.142
RRIRFRPPRLPRPRPRPGLFPRP | -0.143
RRIRFRPPRLPRPRPRPGMLPRP | -0.169
RRIRFRPPRLPRPRPRPGMVPRP | -0.0783
RRIRFRPPRLPRPRPRPGNMPRP | -0.198
RRIRFRPPRLPRPRPRPGPCPRP | 0.0242
RRIRFRPPRLPRPRPRPGPPPRP | 0.909
RRIRFRPPRLPRPRPRPGQNPRP | 0.0186
RRIRFRPPRLPRPRPRPGQSPRP | 0.0525
RRIRFRPPRLPRPRPRPGRIPRP | 0.0413
RRIRFRPPRLPRPRPRPGSRPRP | 0.191
RRIRFRPPRLPRPRPRPGSTPRP | -0.183
RRIRFRPPRLPRPRPRPGTCPRP | -0.161
RRIRFRPPRLPRPRPRPGTLPRP | -0.422

Sequence | shrunken log2 fold change
RRIRFRPPRLPRPRPRPGVVPRP | 0.231
RRIRFRPPRLPRPRPRPGWAPRP | 0.187
RRIRFRPPRLPRPRPRPGWMPRP | -0.0518
RRIRFRPPRLPRPRPRPGYAPRP | -0.0137
RRIRFRPPRLPRPRPRPGYCPRP | -0.321
RRIRFRPPRLPRPRPRPHAVPRP | -0.0464
RRIRFRPPRLPRPRPRPHCFPRP | -0.0267
RRIRFRPPRLPRPRPRPHELPRP | 0.0835
RRIRFRPPRLPRPRPRPHGGPRP | 0.0953
RRIRFRPPRLPRPRPRPHGYPRP | -0.707
RRIRFRPPRLPRPRPRPHHGPRP | 0.000407
RRIRFRPPRLPRPRPRPHIRPRP | -0.113
RRIRFRPPRLPRPRPRPHLKPRP | -0.437
RRIRFRPPRLPRPRPRPHLRPRP | -0.19
RRIRFRPPRLPRPRPRPHNEPRP | -0.626
RRIRFRPPRLPRPRPRPHNLPRP | -0.104
RRIRFRPPRLPRPRPRPHNMPRP | -0.896
RRIRFRPPRLPRPRPRPHNSPRP | -0.194
RRIRFRPPRLPRPRPRPHNTPRP | -0.796
RRIRFRPPRLPRPRPRPHPDPRP | -0.262
RRIRFRPPRLPRPRPRPHPTPRP | -0.133
RRIRFRPPRLPRPRPRPHPWPRP | -0.212
RRIRFRPPRLPRPRPRPHPYPRP | 0.0415
RRIRFRPPRLPRPRPRPHQLPRP | -0.374
RRIRFRPPRLPRPRPRPHSLPRP | -0.169

Sequence | shrunken log2 fold change
RRIRFRPPRLPRPRPRPHSWPRP | -0.0147
RRIRFRPPRLPRPRPRPHTCPRP | 0.00442
RRIRFRPPRLPRPRPRPHTDPRP | -0.736
RRIRFRPPRLPRPRPRPHTYPRP | -0.554
RRIRFRPPRLPRPRPRPHVTPRP | -0.211
RRIRFRPPRLPRPRPRPHWAPRP | -0.0371
RRIRFRPPRLPRPRPRPHWQPRP | -0.119
RRIRFRPPRLPRPRPRPHWVPRP | -0.523
RRIRFRPPRLPRPRPRPHYHPRP | -0.834
RRIRFRPPRLPRPRPRPIAGPRP | 0.0541
RRIRFRPPRLPRPRPRPIECPRP | -0.00174
RRIRFRPPRLPRPRPRPIEHPRP | -0.215
RRIRFRPPRLPRPRPRPIETPRP | -0.186
RRIRFRPPRLPRPRPRPIGKPRP | -0.0112
RRIRFRPPRLPRPRPRPIGSPRP | -0.241
RRIRFRPPRLPRPRPRPIGVPRP | -0.0194
RRIRFRPPRLPRPRPRPIGWPRP | -0.0252
RRIRFRPPRLPRPRPRPIIFPRP | -0.621
RRIRFRPPRLPRPRPRPIKCPRP | -0.229
RRIRFRPPRLPRPRPRPIKGPRP | -0.248
RRIRFRPPRLPRPRPRPILFPRP | -0.0517
RRIRFRPPRLPRPRPRPIMFPRP | -0.0164
RRIRFRPPRLPRPRPRPIMHPRP | -0.212
RRIRFRPPRLPRPRPRPIMQPRP | -0.497
RRIRFRPPRLPRPRPRPIMVPRP | -0.104

Sequence | shrunken log2 fold change
RRIRFRPPRLPRPRPRPINCPRP | -0.257
RRIRFRPPRLPRPRPRPINGPRP | -0.0164
RRIRFRPPRLPRPRPRPIPGPRP | -0.00876
RRIRFRPPRLPRPRPRPIPKPRP | 0.179
RRIRFRPPRLPRPRPRPIPPPRP | 1.09
RRIRFRPPRLPRPRPRPIRCPRP | 0.0461
RRIRFRPPRLPRPRPRPIRHPRP | -0.355
RRIRFRPPRLPRPRPRPIRKPRP | -0.0472
RRIRFRPPRLPRPRPRPIRPPRP | -0.009
RRIRFRPPRLPRPRPRPISAPRP | 0.0624
RRIRFRPPRLPRPRPRPISDPRP | 0.0114
RRIRFRPPRLPRPRPRPISRPRP | 0.0107
RRIRFRPPRLPRPRPRPIVGPRP | -0.0769
RRIRFRPPRLPRPRPRPIYMPRP | -0.878
RRIRFRPPRLPRPRPRPKAPPRP | 0.453
RRIRFRPPRLPRPRPRPKAVPRP | -0.00146
RRIRFRPPRLPRPRPRPKCNPRP | -0.238
RRIRFRPPRLPRPRPRPKCPPRP | -0.128
RRIRFRPPRLPRPRPRPKCTPRP | -0.243
RRIRFRPPRLPRPRPRPKDAPRP | 0.141
RRIRFRPPRLPRPRPRPKDTPRP | 0.0365
RRIRFRPPRLPRPRPRPKDVPRP | -0.00433
RRIRFRPPRLPRPRPRPKEDPRP | 0.122
RRIRFRPPRLPRPRPRPKEEPRP | 0.0372
RRIRFRPPRLPRPRPRPKETPRP | -0.0433

Sequence | shrunken log2 fold change
RRIRFRPPRLPRPRPRPKGSPRP | 0.089
RRIRFRPPRLPRPRPRPKHAPRP | 0.416
RRIRFRPPRLPRPRPRPKIFPRP | -0.197
RRIRFRPPRLPRPRPRPKIHPRP | -0.557
RRIRFRPPRLPRPRPRPKIKPRP | -0.431
RRIRFRPPRLPRPRPRPKITPRP | -0.448
RRIRFRPPRLPRPRPRPKKVPRP | 0.102
RRIRFRPPRLPRPRPRPKLEPRP | -0.0492
RRIRFRPPRLPRPRPRPKLKPRP | 0.0386
RRIRFRPPRLPRPRPRPKMSPRP | -0.369
RRIRFRPPRLPRPRPRPKMWPRP | 0.348
RRIRFRPPRLPRPRPRPKPHPRP | 1.81
RRIRFRPPRLPRPRPRPKSFPRP | -0.0388
RRIRFRPPRLPRPRPRPKTAPRP | 0.295
RRIRFRPPRLPRPRPRPKVFPRP | 0.0358
RRIRFRPPRLPRPRPRPKWCPRP | -0.183
RRIRFRPPRLPRPRPRPKWKPRP | -0.0366
RRIRFRPPRLPRPRPRPKWSPRP | 0.321
RRIRFRPPRLPRPRPRPLDLPRP | -0.366
RRIRFRPPRLPRPRPRPLEGPRP | 0.0031
RRIRFRPPRLPRPRPRPLEIPRP | -0.0193
RRIRFRPPRLPRPRPRPLFIPRP | -0.652
RRIRFRPPRLPRPRPRPLKKPRP | 0.251
RRIRFRPPRLPRPRPRPLKSPRP | -0.307
RRIRFRPPRLPRPRPRPLLSPRP | 0.0127
